Literature values as cited in paper PMC8874714.

Target: CYP102A1 (Priestia megaterium) (UniProt P14779)

Kd: 1.1 nM
Substance: CYP102A1 (from UniProt P14779)
